Values of other authors, collected in paper PMC6470598.
pKd: −log10 of the molar value.

Target: CTLA-4 (Homo sapiens) (UniProt P16410)
Chain of UniProt P16410 (P16410 36-161): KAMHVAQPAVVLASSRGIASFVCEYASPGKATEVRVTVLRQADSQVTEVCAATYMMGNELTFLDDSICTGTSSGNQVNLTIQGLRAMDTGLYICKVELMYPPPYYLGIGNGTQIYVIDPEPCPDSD

- pKd: 8.23
Substance: tremelimumab
